# Test results: US20170226207A1 (Astellas, published 2017)
# Numbering of substitutions follows the chain as printed.
# T1: human Igβ on human B cells (human, UniProt P40259 29-229)
# T1 sequence (looked up): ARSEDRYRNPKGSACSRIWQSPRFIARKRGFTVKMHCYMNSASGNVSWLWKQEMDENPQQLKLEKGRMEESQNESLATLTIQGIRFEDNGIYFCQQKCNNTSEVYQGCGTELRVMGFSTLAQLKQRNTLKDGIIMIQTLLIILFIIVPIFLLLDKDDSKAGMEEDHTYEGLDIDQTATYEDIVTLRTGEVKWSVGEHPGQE
# T2: monkey Igβ-Flag protein (monkey)
# T2 chain: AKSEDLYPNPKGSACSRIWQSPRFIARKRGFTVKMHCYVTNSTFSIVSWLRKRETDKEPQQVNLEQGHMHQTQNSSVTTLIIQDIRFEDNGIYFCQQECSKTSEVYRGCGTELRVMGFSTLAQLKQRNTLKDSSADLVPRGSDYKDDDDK
# T3: human Igβ-Flag protein (human, UniProt P40259 29-159, limits assumed)
# T3 construct: Expressed in FreeStyle 293 cells, purified from culture supernatant with anti-Flag M2 gel; not shown: Flag tag
# T3 sequence (looked up): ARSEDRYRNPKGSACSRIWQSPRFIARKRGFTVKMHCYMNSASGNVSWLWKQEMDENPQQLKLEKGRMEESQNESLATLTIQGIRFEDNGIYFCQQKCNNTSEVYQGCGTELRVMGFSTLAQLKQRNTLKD
# B1: humanized antibody CL6_40m12_DDW (antibody, human IgG1, kappa, V domains shown)
# VH: EVQMVESGGGLVQPGGSLRLSCAVSGFSLSSYSVHWVRQAPGKGLEWVAGIWSGGSIHYTPALSSRFTVSRDDSKNTVYLQMNSLRAEDTAVYYCARYDRYETYAMDYWGQGTLVTVSS
# VL: DIQLTQSPSSLSASVGDRVTITCKASQSVDYDGDSYMNWYQQKPGKAPKLLIYAASNLESGVPSRFSGSGSGTDFTLTISSLQPEDFATYYCQQSNEDPLTFGQGTKVEIKR
# notes: Humanized anti-human Igβ antibody
# B2: humanized antibody CL6_40m14_DDW (antibody, human IgG1, kappa, V domains shown)
# VH: QVQMQESGPGLVRPSQTLSLTCTVSGFSLSSYSVHWVRQPPGRGLEWIGGIWSGGSIHYTPALSSRVTVLRDTSKNQVSLRLSSVTAADTAVYYCARYDRYETYAMDYWGQGSLVTVSS
# VL: B1 VL with L77F, F87I
# modifications: pyroglutamylation at the N terminal of the heavy chain in most of the purified antibody (glutamine of amino acid number 1 modified to pyroglutamic acid)
# notes: as for B1
# B3: humanized antibody CL6_40m16_DDW (antibody, human IgG1, kappa, V domains shown)
# VH: B1 VH with M4L, V37F, Q39K, V48L, A49G, F67L, D73I
# VL: B1 VL with Q3V
# notes: as for B1
# Biological target: T1, human Igβ on human B cells
# Assay: cell-based or functional assay
row,proliferation rate of human B cells (anti-IgM antibody-induced) at 30 µg/mL antibody [%],Binder
1,2.8,B1
2,20.2,B2
3,23.2,B3

# Biological target: T2, monkey Igβ-Flag protein
# Assay: antigen ELISA, Igβ-Flag coated on plate, chemiluminescence
# Experimental: (§1) In order to measure the antigen binding activity of the humanized antibody, antigen ELISA was used. The human Igβ-Flag protein acquired in Example 1 was prepared with a tris-buffered saline (TBS; Wako Pure Chemical Industries, Ltd.) so as to have a concentration of 5000 ng/mL, added to a NUNC MaxiSorp white 384 plate (Maxisorp 384 plate: Nunc Corporation) by an amount of 15 μL per well, and then solidified at room temperature for 1 hour. The resultant was washed with TBS-T (0.05% Tween-20 containing TBS: Wako Pure Chemical Industries, Ltd.) twice, 120 μL of a blocking agent (Blocking One: Nacalai tesque, Inc.) was added thereto, the resultant was left at room temperature for 1 hour, and the solution was removed. A dilution series (8 steps with a final concentration of 0.46 ng/mL to 1 μg/mL) of respective humanized antibodies obtained in Example 3 was prepared using a dilute solution obtained by adding the same amount of the blocking agent and TBS and then added thereto by an amount of 15 μL. The resultant was left at room temperature for 1 hour, washed with a TBS-T washing liquid three times, and 20 μL of an horseradish peroxidase (HRP)-labeled rabbit anti-human Ig antibody (Dako Ltd.) which had been diluted 3000-fold with a diluted solution was added thereto. Thereafter, the resultant was left at room temperature for 1 hour and then washed with a TBS-T washing liquid three times. Next, 30 μL of BM-Chemiluminescence ELISA Substrate (POD) (Roche Diagnostics Inc.) which is a chemiluminescence detection reagent was added thereto, and the amount of chemiluminescence thereof was measured by an EnVision counter (PerkinElmer, Co., Ltd.). Using the same method, antigen ELISA assay was performed using the monkey Igβ-Flag protein acquired in Example 1. When the binding activities in respective concentrations of the test antibodies were calculated, the measuring amount of a well to which a test antibody was not added was set to 0% and the convergence value of the maximum activity of the test antibody was set to 100%. The calculated binding activities were analyzed and the EC50 values of the test antibodies were calculated by fitting a curve.
row,EC50 [µg/mL],Binder
1,0.183,B1
2,0.106,B2
3,0.118,B3

# Biological target: T3, human Igβ-Flag protein
# Assay: as above
# Experimental: as §1
row,EC50 [µg/mL],Binder
1,0.128,B1
2,0.1,B2
3,0.132,B3
